Results published in PMC4691890, “Atomic structure of the apoptosome: mechanism of cytochrome c- and dATP-mediated activation of Apaf-1” (Genes & Development, 2015).
Each block holds one binder with its values, some of them ahead of it.

Key:
[1] = target: T1, full-length human Apaf-1 (residues 1–1248) (human, UniProt O14727 1-1248); assay: ITC; Apaf-1 4 μM, CytC 60 μM; 100 mM KCl, 20 mM HEPES pH 7.5; 22°C; VP-ITC; conditions: both partners purified
T1 construct: Seven copies stand in the apoptosome that forms with CytC and dATP; source: Hi-5 insect cells (baculovirus), purified (Ni-NTA, gel filtration Superose 6)
T1 sequence (looked up): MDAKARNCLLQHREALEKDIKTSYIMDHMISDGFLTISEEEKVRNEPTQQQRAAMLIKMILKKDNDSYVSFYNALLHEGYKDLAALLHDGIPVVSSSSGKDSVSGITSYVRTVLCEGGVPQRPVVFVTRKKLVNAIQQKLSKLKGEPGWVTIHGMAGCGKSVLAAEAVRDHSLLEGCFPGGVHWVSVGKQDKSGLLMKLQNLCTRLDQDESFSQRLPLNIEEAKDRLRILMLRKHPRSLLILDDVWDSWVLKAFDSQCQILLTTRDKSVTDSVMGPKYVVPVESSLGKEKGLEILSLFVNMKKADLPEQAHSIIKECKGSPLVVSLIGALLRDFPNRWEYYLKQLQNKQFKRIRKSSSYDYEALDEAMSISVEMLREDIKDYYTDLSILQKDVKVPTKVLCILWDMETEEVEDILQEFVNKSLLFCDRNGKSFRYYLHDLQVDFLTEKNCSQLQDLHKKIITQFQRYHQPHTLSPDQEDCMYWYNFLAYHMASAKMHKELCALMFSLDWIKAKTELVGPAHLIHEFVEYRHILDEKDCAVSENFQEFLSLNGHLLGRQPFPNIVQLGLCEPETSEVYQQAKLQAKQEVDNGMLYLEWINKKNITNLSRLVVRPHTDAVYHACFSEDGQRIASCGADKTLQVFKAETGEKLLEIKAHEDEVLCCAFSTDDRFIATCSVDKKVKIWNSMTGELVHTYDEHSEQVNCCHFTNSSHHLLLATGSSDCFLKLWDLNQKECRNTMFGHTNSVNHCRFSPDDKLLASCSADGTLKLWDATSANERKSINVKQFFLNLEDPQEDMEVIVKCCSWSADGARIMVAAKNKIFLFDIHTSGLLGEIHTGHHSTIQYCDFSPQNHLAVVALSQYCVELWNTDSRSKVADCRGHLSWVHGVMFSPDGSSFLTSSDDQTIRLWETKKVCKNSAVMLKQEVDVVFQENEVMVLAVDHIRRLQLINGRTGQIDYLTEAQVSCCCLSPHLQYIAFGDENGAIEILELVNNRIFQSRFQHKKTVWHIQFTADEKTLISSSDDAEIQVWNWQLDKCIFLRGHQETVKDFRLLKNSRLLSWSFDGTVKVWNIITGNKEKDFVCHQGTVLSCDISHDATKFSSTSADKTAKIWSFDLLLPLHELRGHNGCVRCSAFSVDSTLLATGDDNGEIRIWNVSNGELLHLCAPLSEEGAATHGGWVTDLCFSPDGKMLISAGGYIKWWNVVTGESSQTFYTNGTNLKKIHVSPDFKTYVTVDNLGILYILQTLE

[2] = target: T1, full-length human Apaf-1 (residues …); assay: SEC; Apaf-1 incubated with CytC at a molar ratio of 1:2, Superdex-200 increase 5/150; 100 mM KCl, 20 mM HEPES pH 7.5, 5 mM DTT; fractions on SDS-PAGE; no dATP named; conditions: both partners purified

- Ka [1]: ~2.04e+06 M⁻¹
- Kd [1]: ~490 nM
B1: untagged, full-length horse CytC (wild type, recombinant) (natural protein)
chain: not shown
notes: cytochrome c, horse (Equus caballus), untagged, full length; Purification as in Yu et al. 2001; also called cytochrome c; wild-type CytC; source: E. coli BL21 (DE3), coexpressed with the yeast heme lyase CYC3, purified

- binding result [2]: binds
B2: horse CytC K87W (natural protein)
chain: not shown
notes: cytochrome c, horse, untagged, full length, mutant K87W; source: E. coli BL21 (DE3), coexpressed with the yeast heme lyase CYC3, purified
